The values that follow come from a protein production outcome set (Wang et al. 2014).
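Further: failed if final PepcDB status was selected cloned or expressed and not failed if soluble or beyond.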

The nature of this series: label from the status in PepcDB records.
Consider “MLDGWQEIEADQIKRMQSALWHLLGNAIAYLSLFVIELVLATIGHSQSLHADAFNNFAGIVSSGLLSLGIWGGIHNHQSHQSKVTALDGWEAERRNRLMRFRLQDLFTLMSGVIMLVMAVQVIVSGVSNLFKSHTVQAVSGVTVWGAAIASIVMLVVWYFNRRGGQQLDNSTLLAAAKDSLSDALTSIGTLISLSGVLLFKFAWLDSVASIVIGFFIFAAGLQIFRDSGLQLINYSDPQVEKNYINTIQQIDGVNQVNAIDVQYSGSLVALSLVIAVSPRMTVAASFQLSERIEQVMRNQYGIIDTKVMFMPQT”, for which the protein production result is given as “failed”. The value for “MNDFSLELPVRTNKPRETGQSILIDNGYPLQFFKDAIAGASDYIDFVKFGWGTSLLTKDLEEKISTLKEHDITFFFGGTLFEKYVSQKKVNEFHRYCTYFGCEYIEISNGTLPMTNKEKAAYIADFSDEFLVLSEVGSKDAELASRQSSEEWLEYIVEDMEAGAEKVITEARESGTGGICSSSGDVRFQIVDDIISSDIDINRLIFEAPNKTLQQGFIQKIGPNVNLANIPFHDAIALETLRLGLRSDTFFL” was “not failed”.

With “MINRVPTNIITGFLGVGKTTAILHLLATKPAHEKWAVLVNEFGEIGIDGAIMSEQGAMIKEVPGGCLCCTAGVPMSVGINALLRQKPDRLIIEPTGLGHPKQVVATLISEQYQPYVDLKATIALMDPRHLSMDKYRSNQNFNDQLASADIVLGNKVDQCSSSDIDAFNDWVTDQTPAKTFSQLIKQGQFPIELLDMPRLVGHASTHIDSHHHHHAADEPQFQLAPQQPFLRKENRGQGYFSCGWLFGAEYQFNFDLLFQLLNDLTAERVKGVLNTDRGCYAFNVANGVVSVTEMSLDGFESRLEVIDSQLMPWSELESILLKIAGIPQALEHHHHHH”, the protein production result is “failed”. On to “MNQTSSHSSLFSSSLPPVPDRPLSPSGRFNRLSYLAWYGFINLIGLMCLFGTGLIMGIFSLSQVTWDDQLLNALSGSFGFIMFGISILFFYFHVVLMIRRLHDTNRSGWWCLLFFVPVIQFILILYLLFIPGSKASNDYGIPRPSPVWEKILGWMIVIVLLLSLLMLGRLVSFMLGTGHLDFPQELIPKNTGYF”, for which the protein production entry is listed as “failed”. Under “MNGKLNLPINTVIGVSLLVLLLVPALYFAKPVLLPMVISTFVALLFSPLINYFEDKGLPRTITVVVTLTLLVSVSILGLAAISEPAKQWWAELPSIVQNVSQEVNEVTKASSEHMNAPLELASDMNIDEMGNNTVFSLLKALATTTPTLLTQAMIVLFMVYFMLNHGRSLFRKSVSRLRGFSKQRQAVELVQALQKDLSRYIGTITLVNAGLGLCVGLVFFVLGLEDPFLWGAFAGVMNFAPYLGPVISMASFGFVAYLQLDSVSFMLTVVSIYLLLNLIESQFVTPTLLGRRFNLNPLVIFMWLVFWGWLWGGMGLLIGVPLLVCINILADRLALCGSTNI” stands “failed”; under “MHLKKIWAVIYAVMLAAFSTFVLLDAFVIPKDRIKADEPIQSQEITDESIEAKAEAVITENSYKDDKISITISELREYDTSIYVADIQLADASYLRAGLADGTFGRNVTEVTSQIAQDSNAILAINGDFYGFRNKGYVMRNGYLYRETAQQGRQGNSRQEDLVIYEDGHMDVIEENEVAAQTLKDSGASQIFSFGPGLIKNGNITVDENSEVEQSMQSNPRTAIGMITPLHYIMAVSDGRTEASEGLTLYQLAQIMKGQDCVTAYNLDGGGSSTMWFNGEVVNKPTSYGSKISERAVSDIVYIGR”, “failed”; under “MKKEIASHLLEIGAVFLQPNDPFTWSSGMKSPIYCDNRLTLSYPKVRQTIAAGLEELIKEHFPTVEVIAGTATAGIAHAAWVSDRMDLPMCYVRSKAKGHGKGNQIEGKAEKGQKVVVVEDLISTGGSAITCVEALREAGCEVLGIVSIFTYELEAGKEKLEAANVASYSLSDYSALTEVAAEKGIIGQAETKKLQEWRKNPADEAWITA”, “not failed”. The value for “EPVLCSRTTCRAVLNPLCQVDYRAKLWACNFCYQRNQFPPSYAGISELNQPA” was “not failed”; that for “MQSRFRSDRRLTVRMGVTLFLLGLLYVGFVAALIALLKSWVLVVVIVALVFGAQYWFSDRIALFAMRGRVVEREEYPELHGVVDRLAAMADMPKPVVAVSEMEMPNAFATGRNPDNAVVCVTTGLLRRLEPAELEGVLAHELSHVAHKDVAVITVASFLGVIAGLIVRFAFYSQLFGGRRDQNTLAVLAVVMGVSAAVYALSFLLIRALSRYRELAADRAAALLTGRPSALAAALTKVTGDIARIPTKDLRTAQAFNAFYFTPAFGSDPGLGRFFATHPSLEQRLDQLGRISTELGEAPAPGKA” was “failed”; that for “MSLKFQKLSGLVLCFLIALPAWFLGQSFPLVGAPVFAIFLGMLLAIFYKNREHTEAGIAFTSKYILQFAVVLLGFGLNLSQVLTVGKTSLPIIVATISSSLLLAFLLQKWFKLDVNTATLVGVGSSICGGSAIAATAPVIQADGDEIAQSISVIFLFNILAALIFPTLGDMIGLSNHGFALFAGTAVNDTSSVTATAAAWDGLHHSNTLDGATIVKLTRTLAIIPITLGLSFYQVYKTKKVGKNQQHTVKLKKVFPMFILYFILASIITTILTALGVNPIFFTPLKTLSKFCIVMAMGAIGLNTNIVKLVKTGGQAIVLGASCWIVITLVSLGMQHLLGIW” was “failed”. The value for “MITVFGLKSKLAPRREKLAEVIYNSLHLGLDIPKGKHAIRFLCLEKEDFYYPFDRSDDYTVIEINLMAGRMEGTKKRLIKMLFSELEYKLGIRAHDVEITIKEQPAHCWGFRGMTGDEARDLDYDIYV” was “not failed”. As for “MSTQENVQIVKDFFAAMGRGDKKGLLAVSAEDIEWIIPGEWPLAGTHRGHAALAALLQKASEMVEISYPEPPEFVAQGERVLVVGFATGRVKSTNRTFEDDWVFAITVRKSKVTSIREYIDTLALARATNFNAT”, the protein production entry is listed as “not failed”.

Regarding “MVAVENVVFVFVAGLLTALATGLGAIPFFLVDEFSDRWNVLLWGLASGIMVAASLFGLVREGLAYGSPVLLVPGVLAGVGLVAVAHELLDDFDQSPKQFEQADFTKLLLILGILTVHSFPEGVAVGVSFAELGLEAATPESAVGIVGVSVPLLAVFMTVAISIHNIPEGTAIAIPLRSLGVSEWKMVWWAVFSSLPQPVGAVIAYYFVTLAKAFLPFGFGFAAGAMVYLVLTEFVPEALEYGDGLPGGGKRELLTGIAVGVLAMVPLAFV”, the protein production entry is “failed”. Under “MTNTRNENLGYVYGLIAVTAFALTLPAMRAALSALDPVFVALGRGAGAAVLAAVFLWFTRQRLPTREEAKGLIIVAAGAVIGFPLLAAWAMLYVDASHGGVVLGILPLATAVAAALFSNERPSMKFWLFALIGAGLVVGYSLSRAGGTLHPADLALFGSIVCAGVSYAEGARLSKSLGGPQVISWALVFSFPILIIPAIHYAPVSLNLPLESWLGFIYLTVISQYLGFFPWYHGLALGGIAKVGQTQLLQPFLTIIASVLLLGEHADLMTWLVATLVVAVVAVGKHAQVKHNDPESATIADTSPHS” stands “failed”; under “MKIRKLTNEEIKGACAFAVNIYNIAIRGCFRTLDCHRYFDEYMDADRLTDEERTGALVVFGAFDSNVLCGVCGMTNEGHITMLYVHPQYLRRGIGKKLLERVRIYARMQLKLMQVSVNAMPAYTAEYFMHVGFKSAYQGGFCNGQGDMYVPMTAKSIYQVEYTPRHIADKTFIAISVGFTCLVFVSGVIYAVCAGLTP”, “failed”; under “MRIASLVPSITELLFDLGLADQLVARTGFCIHPEPAVRAVAKVGGTKDVKLDRLRALAPTHVVVNIDENRRETVDEIRTFVPHVIVTHPCAPEDNLALYRLLGGIFGRLEHHHHHH”, “failed”. The value for “MDGLIPMALKAVKKNLTRRRYERLSYSATTRESYDFASDIEMNVDGRHHRRGWSVGDFSSLSSRETKRNGGVAPEKSLTPPREGQLVRFKSHRLFSCISGQ” was “failed”. Under “MTTASGPGDLPAGSPVSSLHEALDQCMTALDLFLTNQFSEALSYLKPRTKESMYHSLTYATILEMQAMMTFDPQDILLAGNMMKEAQSLCQRHRRKSSMTDSFSNLVHRPTIDQFTEEEIHAEVCYAECLLQRAALTFLQDENMVSFIKGGIKVRNSYQTYKELDSLVQSSQYSKGESHRHFEGGVKLGVGAFNLTLSMLPTRILRLLEFVGFSGNKDYGLLQLEEGATGHSFRAVLCVMLLLCYHTFLTFVLGTGNVNIEEAEKLLKPYLNRYPKGAIFLFFAGRIEAIKGNIDAAVRRFEECCEAQQHWKQFHHMCYWELMWCFTYKGQWKMAYFYADLLSKENSWSKATYIYMKAAYLSMFGKEDYKPFGDNEVELFRAVPGLKLKIAGKSLPTEKFAIRKSRRYLSPNPISLPIPALEMMYIWNGYAVIGKQPTLTDGMLEVITKAEEMLAMGPENEYSADDDCLVKLLKGLCLKYLGRIQEAEENFRSISANEKKIKYDHYLIPNALLELALLFMEQGRNEEAIKLLESAKQNYKNYSMESRTHLRIQAATLQARSSLEDGNRSLVSSVSL” stands “failed”.

Take “MIVSKRTFRSLYIPILIEQLFILIMGQADTLMLNSYSTDAVAASGMISQILMLITFLITIIHVGTNIRIVHLKEHQPSSISQEIYHNLLFNSIVSIVFTIVIGIAFELILRLFQVPQDIFKLTYQFGMIILSVLTLTTCHMYIGTVLRVMNHASSATRITIISNVTNIILNGIVLFIIPQYVGNPVLGVAVVTAFSRLLGCTLALIALIQIFRPFKHYFKLSWKKIYQVSTLGIPTAGEQISYNFAQTFTTAFIAMLGTQVIAAKSVSTVLSGLSFSCAMAFSAASQIYLGKFISRRRYRTLKKVVIKSIWFNITQSFMIMTCVFIGFIVCGRWITHDIQTYHLIIYYLVILFGLEPIRAINNLIVDLLNVTGDVRYPVTVSVVTTWLLLLPGSYLLGIHWRLGYTGIILVSIADEALRFIIMYLRWRNDRWQARMKQIGV”: the protein production result is listed as “failed”.

Take “MLSIMRRPIAALAVLLAAAVSIPAQAQFSDSYKFLEAVRKKEGDKVTEALNEPGTQIVNTKDYTTGQTGLHIVVARRDLVWVQFLVAKGANVNARDNRGVTPLVLAADIGFIEGVDELIRSGARVDEANNTGETPLISAVHRRDLALVRMLIKAGANPDRPDNSGRSARDYAMLEGKGSPLLGEIEKATKDAKAAGPQKTYGPSF”: the protein production result is listed as “failed”.

Consider “MSRINKFVLTVSLLIFIMISAVACGIYTQMVKERVYSLKQSVIDTAFAVANIAEYRRSVAIDLINTLNPTEEQLLVGLRTAYADSVSPSYLYDVGPYLISSDECIQVKEFEKNYCADIMQVVKYRHVKNTGFISFDGKTFVYYLYPVTHNRSLIFLLGLERFSLLSKSLAMDSENLMFSLFKNGKPVTGDEYNAKNAIFTVSEAMEHFAYLPTGLYVFAYKKDVYLRVCTLIIFFAALVAVISGASCLYLVRRVINRGIVEKEAIINNHFERVLDGGLFFSAADVKKLYSMYNSAFLDDLTKAMGRKSFDEDLKALPEKGGYLCLFDVDKFKNINDTFGHLLGDEVLMKVVKILKSQIPVDKGKVYRFGGDEFAVIYTGGTLEELLSILKEIVHFQVGSINLSTSIGVAHSNECPTVERLKMLADERLYKSKKNGRAQISWQ”, for which the protein production result is given as “failed”. Under “CVACSKPISGLTGAKFICFQDSQWHSECFNCGKCSVSLVGKGFLTQNKEIFCQKCGSGMDTDI” stands “not failed”; under “MFTDLDLALFFIIIFIVLFIGYIAYFWRKPDDIHKHGEWSLGGRRFGTVVVWFLLGGDLYTAYTLIAVPGAAATPGIGGGAFAMFAITYGIMIYPIVYGTMPRLYNVSKKRGYITAADFVKDRFSSRFLAMLIALTGVLAELPYIALQITGIKYVLASLSLPISISLIIAFLLVAGFTFVSGLRGPALTAIIKDAIIWAAVLVIIVYIPLKLHGFGNIFSKAATISPNLLDISPTIDIGYVSLALGSALALFLYPHAVTGTLGSKDVKTIKRNAALLPLYNVLLMFVAIIGIMSVVYFNAYPKVSSEALPLLVLHVFPSTFTAFAFAAIVVGSIVPASIMALASANLLTRNLYLEYINPNATEKAQTNLSRVLVVVVIVAALAFSLVPAASGEIVYLQTIGGAIIMQTLPSVYLALFTRKLNKYPVGLGWLAGLATTMILLVDLHFKTSLYKGFFFMYVGIIALLINLAVVGLGMLIMAAMHRIKNEGIIEDHEFLDE”, “failed”.
